The source of these data is article PMC7402097, “Reduction of Protein Bound Methionine Sulfoxide by a Periplasmic Dimethyl Sulfoxide Reductase” (Antioxidants, 2020).

Substrate in series [1]: C[S+]([O-])CC[C@H](N)C(=O)O
Nature of the series: purified protein. To be noted: Britton-Robinson buffer pH 6.0, 46 nM DorA, electron donor dithionite-reduced benzyl viologen, R,S diastereomer mixture used, KM already divided by 2 to count only the S-diastereomer. The series is classed as biochemical, Cereibacter sphaeroides.

Substrate in series [2]: C[S+](C)[O-]
Nature of the series: purified protein. The conditions noted are these: Britton-Robinson buffer pH 6.0, 46 nM DorA, electron donor dithionite-reduced benzyl viologen.

B1: DorA DMSO reductase (Cereibacter sphaeroides) (protein)
chain: EGLANGEVMSGCHWGVFKARVENGRAVAFEPWDKDPAPSHQLPGVLDSIYSPTRIKYPMVRREFLEKGVNADRSTRGNGDFVRVTWDEALDLVARELKRVQESYGPTGTFGGSYGWKSPGRLHNCQVLMRRALNLAGGFVNSSGDYSTAAAQIIMPHVMGTLEVYEQQTAWPVVVENTDLMVFWAADPMKTNEIGWVIPDHGAYAGMKALKEKGTRVICINPVRTETADYFGADVVSPRPQTDVALMLGMAHTLYSEDLHDKDFLENCTTGFDLFAAYLTGESDGTPKTAEWAAEICGLPAEQIRELARSFVAGRTMLAAGWSIQRMHHGEQAHWMLVTLASMIGQIGLPGGGFGLSYHYSNGGSPTSDGPALGGISDGGKAVEGAAWLSESGATSIPCARVVDMLLNPGGEFQFNGATATYPDVKLAYWAGGNPFAHHQDRNRMLKAWEKLETFIVQDFQWTATARHADIVLPATTSYERNDIESVGDYSNRAILAMKKVVDPLYEARSDYDIFAALAERLGKGAEFTEGRDEMGWISSFYEAAVKQAEFKNVAMPSFEDFWSEGIVEFPITEGANFVRYADFREDPLFNPLGTPSGLIEIYSKNIEKMGYDDCPAHPTWMEPAERLGGAGAKYPLHVVASHPKSRLHSQLNGTSLRDLYAVAGHEPCLINPADAAARGIADGDVLRVFNDRGQILVGAKVSDAVMPGAIQIYEGGWYDPLDPSEEGTLDKYGDVNVLSLDVGTSKLAQGNCGQTILADVEKYAGAPVTVTVFDTPKGA
notes: full-length dorA with C-terminal 6-His tag (kept), pIND4-DorA-His; expressed in R. sphaeroides f. sp. denitrificans IL106 dorA- (host) and purified from periplasm; monomeric
One may read the Km as the concentration of substrate that gives half-maximal velocity. One may read the kcat as the maximal rate divided by the concentration of active sites. Usually kcat/Km stands for the turnover number divided by the Michaelis constant. As to B1, in the series “purified protein [1]”, the Km is given as 68.8 ± 5.7 µM, the kcat is 4.2 ± 0.1 s⁻¹ and the kcat/Km was found to be 61000 M⁻¹ s⁻¹. In “purified protein [2]”, the Km worked out at 1.8 ± 0.4 µM, the kcat worked out at 3.9 s⁻¹ and the kcat/Km turned out to be 2.2e+06 M⁻¹ s⁻¹.
